This note sets out measurements from patent US20260263599A1 (AUTOLUS, published 2026).

B1: Jovi Hum 8 (antibody, V domains shown)
VH: QVQLVQSGAEVKKPGASVKVSCKASGYTFTGYVMHWVRQAPGQGLEWMGFINPYNDDIQSNERFRGRVTMTRDTSISTAYMELSRLRSDDTAVYYCARGAGYNFDGAYRFFDFWGQGTMVTVSS
VL: DIVMTQSPLSLPVTPGEPASISCRSSQRLVHSNGNTYLHWYLQKPGQSPRLLIYRVSNRFPGVPDRFSGSGSGTDFTLKISRVEAEDVGVYYCSQSTHVPYTFGQGTKLEIK
notes: also called H-AF 1; humanised antibody with H-AF062256 VH and 3aaz VL
B2: Jovi Hum 18 (antibody, V domains shown)
VH: QVQLVQSGAEVKKPGASVKVSCKASGYTFTGYVMHWVRQAPGQGLEWMGFINPYNDDIQSNERFRGRVTMTSDKSISTAYMELSRLRSDDTAVYYCARGAGYNFDGAYRFFDFWGQGTMVTVSS
VL: DIVMTQSPLSLPVTPGEPASISCRSSQRLVHSNGNTYLHWYLQKPGQSPRLLIYRVSNRFPGVPDRFSGSGSGTDFTLKISRVEAEDVGVYYCSQSTHVPYTFGQGTKLEIK
notes: also called H-AF 4
B3: Jovi Hum 20 (antibody, V domains shown)
VH: QVQLVQSGAEVKKPGASVKVSCKASGYTFTGYVMHWVRQAPGQGLEWIGFINPYNDDIQSNERFRGRVTMTRDKSISTAYMELSRLRSDDTAVYYCARGAGYNFDGAYRFFDFWGQGTMVTVSS
VL: DIVMTQSPLSLPVTPGEPASISCRSSQRLVHSNGNTYLHWYLQKPGQSPRLLIYRVSNRFPGVPDRFSGSGSGTDFTLKISRVEAEDVGVYYCSQSTHVPYTFGQGTKLEIK
notes: also called H-AF 6
B4: Jovi Hum 17 (antibody, V domains shown)
VH: QVQLVQSGAEVKKPGASVKVSCKASGYTFTGYVMHWVRQAPGQGLEWMGFINPYNDDIQSNERFRGRVTMTSDTSISTAYMELSRLRSDDTAVYYCARGAGYNFDGAYRFFDFWGQGTMVTVSS
VL: DIVMTQSPLSLPVTPGEPASISCRSSQRLVHSNGNTYLHWYLQKPGQSPRLLIYRVSNRFPGVPDRFSGSGSGTDFTLKISRVEAEDVGVYYCSQSTHVPYTFGQGTKLEIK
notes: also called H-AF 3
B5: Jovi Hum 19 (antibody, V domains shown)
VH: QVQLVQSGAEVKKPGASVKVSCKASGYTFTGYVMHWVRQAPGQGLEWIGFINPYNDDIQSNERFRGRVTMTRDTSISTAYMELSRLRSDDTAVYYCARGAGYNFDGAYRFFDFWGQGTMVTVSS
VL: DIVMTQSPLSLPVTPGEPASISCRSSQRLVHSNGNTYLHWYLQKPGQSPRLLIYRVSNRFPGVPDRFSGSGSGTDFTLKISRVEAEDVGVYYCSQSTHVPYTFGQGTKLEIK
notes: also called H-AF 5
B6: Jovi Hum 26 (antibody, V domains shown)
VH: QVQLVQSGAEVKKPGASVKMSCKASGYTFTGYVMHWVRQAPGQGLEWMGFINPYNDDIQSNERFRGRVTMTSDKSISTAYMELSRLRSDDTAVYYCARGAGYNFDGAYRFFDFWGQGTMVTVSS
VL: DIVMTQSPLSLPVTPGEPASISCRSSQRLVHSNGNTYLHWYLQKPGQSPRLLIYRVSNRFPGVPDRFSGSGSGTDFTLKISRVEAEDVGVYYCSQSTHVPYTFGQGTKLEIK
notes: also called H-AF 12
B7: Jovi Hum 16 (antibody, V domains shown)
VH: QVQLVQSGAEVKKPGASVKVSCKASGYTFTGYVMHWVRQAPGQGLEWMGFINPYNDDIQSNERFRGRVTMTRDKSISTAYMELSRLRSDDTAVYYCARGAGYNFDGAYRFFDFWGQGTMVTVSS
VL: DIVMTQSPLSLPVTPGEPASISCRSSQRLVHSNGNTYLHWYLQKPGQSPRLLIYRVSNRFPGVPDRFSGSGSGTDFTLKISRVEAEDVGVYYCSQSTHVPYTFGQGTKLEIK
notes: also called H-AF 2
B8: Jovi Hum 27 (antibody, V domains shown)
VH: QVQLVQSGAEVKKPGASVKMSCKASGYTFTGYVMHWVRQAPGQGLEWIGFINPYNDDIQSNERFRGRVTMTRDTSISTAYMELSRLRSDDTAVYYCARGAGYNFDGAYRFFDFWGQGTMVTVSS
VL: DIVMTQSPLSLPVTPGEPASISCRSSQRLVHSNGNTYLHWYLQKPGQSPRLLIYRVSNRFPGVPDRFSGSGSGTDFTLKISRVEAEDVGVYYCSQSTHVPYTFGQGTKLEIK
notes: also called H-AF 13
B9: Jovi Hum 21 (antibody, V domains shown)
VH: QVQLVQSGAEVKKPGASVKVSCKASGYTFTGYVMHWVRQAPGQGLEWIGFINPYNDDIQSNERFRGRVTMTSDTSISTAYMELSRLRSDDTAVYYCARGAGYNFDGAYRFFDFWGQGTMVTVSS
VL: DIVMTQSPLSLPVTPGEPASISCRSSQRLVHSNGNTYLHWYLQKPGQSPRLLIYRVSNRFPGVPDRFSGSGSGTDFTLKISRVEAEDVGVYYCSQSTHVPYTFGQGTKLEIK
notes: also called H-AF 7

The target in this assay is T1, T Cell Receptor Beta Constant 2 (TRBC2) (human, UniProt A0A5B9 1-144, limits assumed).
T1 construct: ELISA antigen; also called TCR beta constant region 2
T1 sequence (A0A5B9 1-144 limits assumed): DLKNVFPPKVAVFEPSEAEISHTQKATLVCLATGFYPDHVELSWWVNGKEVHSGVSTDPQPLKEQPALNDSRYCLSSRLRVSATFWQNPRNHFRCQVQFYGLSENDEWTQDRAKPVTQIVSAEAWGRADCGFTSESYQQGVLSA
The assay can be described thus: ELISA.
On to B1, for which the binding result is given as “no binding”.

For B2, the binding result is given as “no binding”.

As to B3, the binding result is on record as “no binding”.

As for B4, the binding result was “no binding”.

In the case of B5, the binding result was “no binding”.

Consider B6, for which the binding result is reported as “no binding”.

For B7, the binding result was “no binding”.

For the molecule B8, the binding result is listed as “no binding”.

Turning to B9, the binding result is listed as “no binding”.
